Measured values as given in article PMC10054981 (bioRxiv, 2023).
Positions count from the first letter of the chain named. Numbers in names are those of the source. Values belong to the molecule of their own block, whether it stands above or below them.

B1: Speckle-type POZ protein (SPOP) wild type, residues 28-359 (domain or fragment)
chain: KVVKFSYMWTINNFSFCREEMGEVIKSSTFSSGANDKLKWCLRVNPKGLDEESKDYLSLYLLLVSCPKSEVRAKFKFSILNAKGEETKAMESQRAYRFVQGKDWGFKKFIRRDFLLDEANGLLPDDKLTLFCEVSVVQDSVNISGQNTMNMVKVPECRLADELGGLWENSRFTDCCLCVAGQEFQAHKAILAARSPVFSAMFEHEMEESKKNRVEINDVEPEVFKEMMCFIYTGKAPNLDKMADDLLAAADKYALERLKVMCEDALCSNLSVENAAEILILADLHSADQLKTQAVDFINYHASDVLETSGWKSMVVSHPHLVAEAYRSLASA
B2: C-terminal intrinsically disordered region (IDR) of DAXX (cDAXX), fluorescently labeled (domain or fragment)
chain: SPMSSLQISNEKNLEPGKQISRSSGEQQNKGRIVSPSLLSEEPLAPSSIDAESNGEQPEELTLEEESPVSQLFELEIEALPLDTPSSVETDISSSRKQSEEPFTTVLENGAGMVSSTSFNGGVSPHNWGDSGPPCKKSRKEKKQTGSGPLGNSYVERQRSVHEKNGKKICTLPSPPSPLASLAPVADSSTRVDSPSHGLVTSSLCIPSPARLSQTPHSQPPRPGTCKTSVATQCDPEEIIVLSDSD
B3: SPOP R354H, residues 28-359 (domain or fragment)
chain: B1 chain with R327H

Assays:
[1] = biological target: fluorescently labeled peptide derived from a SPOP-binding motif from the substrate Puckered; assay: fluorescence polarisation
[2] = biological target: the molecule itself; assay: CG-MALS
[3] = biological target: SPOP R221C, residues 28-359 (human, UniProt O43791 28-359, R221C); assay: fluorescence polarisation
[4] = biological target: B3; assay: fluorescence polarisation
[5] = biological target: B1; assay: fluorescence polarisation

Kd [1]: 4.3 µM
Molecule: SPOP mutBACK (Y353E), residues 28-359 (from UniProt O43791 28-359) (domain or fragment)

Kd [1]: 5.9 µM
Molecule: SPOP R221C, residues 28-359 (from UniProt O43791 28-359) (domain or fragment)

Kd [1]: 5.1 µM
Molecule: SPOP R354H, residues 28-359 (from UniProt O43791 28-359) (domain or fragment)

Kd [1]: 9.8 µM
Molecule: Speckle-type POZ protein (SPOP) wild type, residues 28-359 (from UniProt O43791 28-359) (domain or fragment)

Molecule: B1
Kd [2]: 2.7 µM

Molecule: B2
Kd [3]: 3.2 µM | Kd [4]: 3000 nM | Kd [5]: 1200 nM

Molecule: B3
Kd [2]: 26.9 µM
